According to PMC2760593 (Journal of biochemistry, 2008):

Target: T1, polyhistidine (His)-tagged recombinant full-length CCN2 (UniProt P29279 27-349)
T1 sequence (looked up): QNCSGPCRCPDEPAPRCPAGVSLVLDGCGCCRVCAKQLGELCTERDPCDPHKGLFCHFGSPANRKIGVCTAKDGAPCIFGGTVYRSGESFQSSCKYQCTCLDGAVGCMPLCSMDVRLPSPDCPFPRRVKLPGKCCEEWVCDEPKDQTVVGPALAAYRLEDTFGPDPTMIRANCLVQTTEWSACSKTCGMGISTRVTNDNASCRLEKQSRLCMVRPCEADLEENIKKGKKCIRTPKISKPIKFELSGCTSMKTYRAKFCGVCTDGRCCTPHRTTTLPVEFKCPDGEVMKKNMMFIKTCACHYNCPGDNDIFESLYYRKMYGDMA
Experiment: SPR

B1: recombinant bone morphogenetic protein (BMP)-2 (ligand, UniProt P12643 283-396, looked up)
chain: QAKHKQRKRLKSSCKRHPLYVDFSDVGWNDWIVAPPGYHAFYCHGECPFPLADHLNSTNHAIVQTLVNSVNSKIPKACCVPTELSAISMLYLDENEKVVLKNYQDMVVEGCGCR
- Kd: 0.77 nM
